{
  "source": "patent US6518401B2",
  "about": "“Tumor necrosis factor stimulated gene 6 (TSG-6) protein” (New York University, priority 1991, dated 2003)",
  "key": {"[1]": {"test": "Binding of TSG-6 protein to hyaluronic acid coupled to Sepharose (Western blot)", "parameters": "species or system bovine", "protocol": "To analyze the hyaluronic acid binding properties of the TSG-6 protein, hyaluronic acid was coupled to Sepharose (HA-Sepharose) to be used as a matrix for affinity chromatography.\nTo couple hyaluronic acid to Sepharose, 100 mg hyaluronic acid from bovine trachea (Sigma Chemicals) was dialyzed extensively against 0.5 M NaCl. Five ml EAH-Sepharose 4 B (Pharmacia) was washed extensively with 0.5 M NaCl and mixed with the hyaluronic acid solution. The pH was adjusted to 4.5 and 40 mg 1-(3-dimethylaminopropyl)-3-ethylcarbodiimide hydrochloride (Aldrich Chem. Co.), dissolved in 1 ml distilled water, was added dropwise under constant stirring. The pH was kept at 4.5 for 1 hr. After constantly stirring the reaction mixture overnight, 200 μl acetic acid were added for another 4 hr to block the remaining amino groups on the EAH-Sepharose. […]\nTo show the binding of TSG-6 protein to HA-Sepharose but not to a similarly activated and blocked control Sepharose matrix, concentrated serum-free supernatant of GSV-L5 cells was used. […] Thereafter, the supernatants were removed and analyzed by Western blotting with anti-TSG-6 antibody. […] After vigorous shaking and centrifugation the supernatants were removed, dialyzed against Tris buffered saline and analyzed by Western blotting (FIG. 15). […]"}, "[2]": {"system": "TSG-6 binding protein in serum", "test": "TSG-6 binding to carrier protein in sera (120-kDa complex, Western blot)", "conditions": "recombinant human TSG-6 incubated with human, fetal bovine, rabbit, or mouse serum, 37° C.", "protocol": "(§1) Analysis of TSG-6 Binding to Carrier Protein. To determine the presence of TSG-6 binding protein, samples to be analyzed were mixed with an equal volume of TSG-6-containing serum-free supernatants of TN-5 B insect cells infected with recombinant Baculovirus and incubated at 37° C. for 30-60 min. (Purified TSG-6 protein was used in some experiments, as indicated.) Thereafter, the mixtures were analyzed for the presence of the 120-kDa complex by Western blotting with purified rabbit antibody to TSG-6 as described earlier (Wisniewski et al, J. Immunol. 151:6593-6601 (1993)). For detection of inter-α-inhibitor (IαI) epitopes by Western blotting, membranes were incubated with a rabbit anti-human IαI antibody (Dako) at a 1:2000 dilution for 1 hr.\nBinding of TSG-6 Protein to a Protein Present in Mammalian Sera and in Supernatants of Human HepG-2 Hepatoma Cells. […] Recombinant human TSG-6 protein produced in insect cells migrates somewhat faster than the 35-kDa TSG-6 protein from human cells (Wisniewski et al, J. Immunol. 151:6593-6601 (1993)) possibly due to s different extent of glycosylation. […] When TSG-6 containing culture upernatants were incubate at 37° C. in the presence of fetal bovine serum (lane 3), mouse serum (lane 7), or serum-free culture supernatant of human HepG-2 hepatoma cells (lane 5), an additional 120-kDa band became readily apparent. […]"}, "[3]": {"molecular_target": "T1, IαI purified from human serum (Homo sapiens, UniProt P02760+P19823)", "T1 construct": "IαI is a complex protein in which the bikunin chain is linked to HC1 and HC2; supposed to determine the cleavage site for the C-terminal propeptide; from tissue; host or cells: human serum", "T1 sequence (P02760 206-352 limits assumed)": "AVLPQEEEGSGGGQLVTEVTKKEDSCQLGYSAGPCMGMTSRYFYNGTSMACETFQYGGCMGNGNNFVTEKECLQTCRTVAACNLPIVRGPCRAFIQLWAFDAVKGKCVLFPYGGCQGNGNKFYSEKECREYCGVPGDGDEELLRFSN", "T1 sequence (P19823 55-702 limits assumed)": "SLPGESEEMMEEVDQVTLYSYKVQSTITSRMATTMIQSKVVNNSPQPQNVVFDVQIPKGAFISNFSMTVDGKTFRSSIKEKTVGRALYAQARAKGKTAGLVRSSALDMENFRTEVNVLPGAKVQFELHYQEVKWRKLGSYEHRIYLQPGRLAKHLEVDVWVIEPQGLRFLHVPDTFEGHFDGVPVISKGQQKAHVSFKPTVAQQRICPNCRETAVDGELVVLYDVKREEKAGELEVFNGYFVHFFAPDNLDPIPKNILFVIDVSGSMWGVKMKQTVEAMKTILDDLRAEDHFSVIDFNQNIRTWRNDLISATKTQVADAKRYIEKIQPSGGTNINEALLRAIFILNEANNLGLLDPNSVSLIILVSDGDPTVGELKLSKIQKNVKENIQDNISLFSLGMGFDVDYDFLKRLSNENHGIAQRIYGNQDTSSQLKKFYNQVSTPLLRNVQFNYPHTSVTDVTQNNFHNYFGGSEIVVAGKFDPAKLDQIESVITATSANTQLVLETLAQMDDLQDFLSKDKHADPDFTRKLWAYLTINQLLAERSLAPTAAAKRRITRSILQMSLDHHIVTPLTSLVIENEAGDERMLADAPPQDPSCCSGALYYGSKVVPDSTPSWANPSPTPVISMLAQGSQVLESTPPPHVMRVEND", "T1 sequence (P98066 18-277 partner)": "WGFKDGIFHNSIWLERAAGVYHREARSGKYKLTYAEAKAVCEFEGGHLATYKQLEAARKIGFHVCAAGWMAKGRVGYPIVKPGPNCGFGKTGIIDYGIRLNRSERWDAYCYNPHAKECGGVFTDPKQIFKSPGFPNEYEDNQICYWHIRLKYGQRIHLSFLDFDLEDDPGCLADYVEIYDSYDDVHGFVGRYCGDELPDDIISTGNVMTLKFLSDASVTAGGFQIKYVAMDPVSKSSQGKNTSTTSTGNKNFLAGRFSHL", "test": "TSG-6/IαI complex formation with purified proteins (SDS-PAGE, Western blot)", "format": "binding", "protocol": "Purified recombinant TSG-6 protein (lane 1) and IαI purified from human serum (lane 2) were mixed and incubated for 2 min. (lane 3), 5 min. (lane 4), 10 min. (lane 5), 15 min. (lane 6), 30 min. (lane 7), or for 60 min. (lane 8) at 37° C. or for 60 min. at 0° C. (lane 9). The reaction mixtures were then separated by SDS-PAGE and subjected to Western blot analysis with rabbit anti-TSG-6 serum.\nFour micrograms of purified IαI and 3 μg of purified TSG-6 protein were incubated separately for 16 hrs. at 37° C. in the absence or presence of 30 milliunits of chondroitin sulfate ABC lyase. Thereafter, control IαI was mixed with control TSG-6 protein (lane 1), chonroitinase-pretreated IαI was mixed with control TSG-6 (lane 2), and control IαI was reaction mixtured with chondroitinase-pretreated TSG-6 protein (lane 3). The reaction mixtures were incubated for 1 hr. at 37° C. before SDS-PAGE and Western blot analysis with anti-TSG-6 antibody.\nas §1\nPurification of IαI from Human Serum. IαI purified from human serum, according to Salier et al, Anal Biochem. 109:273-283 (1980), with some modifications. FPLC on Q Sepharose Fast Flow was used instead of DEAE-Sephacel chromatography. Chelating Sepharose Fast Flow was used for zinc chelate chromatography. Phenyl Superose was used for Hydrophobic chromatography and Superdex 200 was used for size-exclusion chromatography instead of Sephacryl-300. The IαI recovered was essentially pure as judged by SDS-PAGE and silver staining.\nRapid Complex Formation between Recombinant TSG-6 Protein and IαI Purified from Human Serum at 37° C. The 120kDa TSG-6/IαI complex formed readily when purified TSG-6 protein and purified IαI were incubated together at 37° C. but not at 0° C. […] This IαI derivative appears to be a by product of the reaction of TSG-6 with IαI. It should be noted that the 120kDa TSG-6/IαI complex is formed by purified TSG-6 and IαI proteins in the apparent absence of other proteins.\nChondroitin Sulfate Associated with IαI Is Required for the Formation of the TSG-6/IαI Complex. […]"}, "[4]": {"conditions": "purified TSG-6 protein and purified IαI, 37° C."}},
  "data": [
    {"substance": "TSG-6 protein: cytokine-induced protein or glycoprotein, amino acid sequence SEQ ID NO:2; from GSV-L5 cells or Baculovirus-infected insect cells", "values": [
      {"measurement": "binding of TSG-6 protein to HA-Sepharose", "setting": "[1]; concentrated serum-free GSV-L5 culture supernatant, overnight at 4° C., elution with 3 M NaCl", "value": "bound virtually all the TSG-6 protein"},
      {"measurement": "binding of TSG-6 protein to control Sepharose matrix", "setting": "[1]; control Sepharose without hyaluronic acid, same procedure", "value": "did not bind any detectable TSG-6 protein"},
      {"measurement": "complex formation on incubation with serum", "setting": "[2]", "value": "readily incorporated into a stable 120 kDa complex"},
      {"measurement": "ability to form the TSG-6/IαI complex after pretreatment of the protein with chondroitin sulfate ABC lyase", "setting": "[3]; preincubated 16 hrs. at 37° C. with chondroitinase, then mixed with the untreated partner protein", "value": "little effect"},
      {"measurement": "TSG-6/IαI complex formation at 0° C.", "setting": "[3]; purified TSG-6 protein and purified IαI, 0° C., within 1 hr.", "value": "little or no TSG-6/IαI complex was formed"},
      {"measurement": "time until TSG-6/IαI complex formation detectable", "setting": "[3]; [4]", "value": "≤ 2", "unit": "min"},
      {"measurement": "time until complex formation reaction appeared complete", "setting": "[3]; [4]", "value": "≤ 10", "unit": "min"}
    ]}
  ]
}
